Measured values from patent publication US9308238B2, “Compositions and methods for modulating EMT and uses thereof” (Whitehead Institute for Biomedical Research, priority 2010, dated 2016).

B1: SFRP1: Recombinant human SFRP1 protein (R&D Systems), secreted decoy receptor binding canonical and non-canonical Wnt ligands (protein, UniProt Q8N474 32-314, looked up)
Secreted frizzled-related …: SEYDYVSFQSDIGPYQSGRFYTKPPQCVDIPADLRLCHNVGYKKMVLPNLLEHETMAEVKQQASSWVPLLNKNCHAGTQVFLCSLFAPVCLDRPIYPCRWLCEAVRDSCEPVMQFFGFYWPEMLKCDKFPEGDVCIAMTPPNATEASKPQGTTVCPPCDNELKSEAIIEHLCASEFALRMKIKEVKKENGDKKIVPKKKKPLKLGPIKKKDLKKLVLYLKNGADCPCHQLDNLSHHFLIMGRKVKSQYLLTAIHKWDKKNKEFKNFMKKMKNHECPTFQSVFK
B2: BMP4: Recombinant BMP4 protein obtained from Stemgent (protein, UniProt P12644 293-408, looked up)
Bone morphogenetic protein 4: SPKHHSQRARKKNKNCRRHSLYVDFSDVGWNDWIVAPPGYQAFYCHGDCPFPLADHLNSTNHAIVQTLVNSVNSSIPKACCVPTELSAISMLYLDEYDKVVLKNYQEMVVEGCGCR

Tests used:
Format in all cases: cell-based, human
HMLE^24+ cells = test: Boyden chamber migration assay, HMLE^24+ cells
Method: FIGS. 3A-3E. Autocrine Signaling controls migration and mammosphere formation.
(§1) FIGS. 5A-5H. Concomitant stimulation of Wnt and TGF-beta pathways allows HMLE^24+ cells to enter into a mesenchymal and SC-like state. (FIG. 5A) RT-PCR: N-Cadherin, Zeb1 and Zeb2, L32 was loading control, n=3. Prior RNA isolation, HMLE^24+-shGFP or -shSFRP1 (stable knockdown of SFRP1, FIG. 12A) cells were treated for 3 days with daily doses of indicated factors: anti-DKK1 antibody (10 μg/ml), anti-E-Cadherin antibody (1 μg/ml), TGF-beta 1 (5 ng/ml), Wnt5a (250 ng/ml), (FIG. 5B) Brightfield microscopy: images of control, TGF-beta- and iEMT-cocktail treated HMLE^24+ cells after 14 days of treatment as indicated (see also FIG. 12D). (FIG. 5C) RT-PCR: Zeb1, Zeb2, E-Cadherin and N-Cadherin, L32 was loading control, n=3. After 14 day treatment, cells were expanded in absence of further stimulation for 4 passages. Shown are PBS-treated control HMLE^24+-shGFP and HMLE^24+-shSFRP1 cells, two HMLE^24+-shGFP cultures treated with TGF-beta 1 (TGF-β-a and -b), two HMLE^24+-shSFRP1 cultures treated with the iEMT-cocktail (iEMT-a and -b). (FIG. 5D) Immunoblot: EMT markers and associated autocrine pathways, cells generated as described in (C). (FIG. 5E) Migration (Boyden Chamber Assay) and Mammosphere Assay: cells generated as indicated in (C), *control vs. TGF-beta treatment, p<1×10^−4, **control vs. iEMT-treatment, p<1×10^−9, n(migration)=3, n(mammospheres)/1000 cells, n=7. (FIG. 5F) Flow cytometry: CD44 and CD24 cell-surface marker expression in control, TGF-beta-a and iEMT-a cells generated as described in (C). (FIG. 5G) Lung metastasis: cells expanded for 8 passages after cessation of treatment as described in (C) were transformed with RAS; 1.0×10^5 cells were injected into the mammary fat pads of mice; GFP-labeled metastases on the surface of the lungs were quantified; *control vs. all other groups, p<0.05, n=5 mice/group. […]

MSP-RAS cells = test: Boyden chamber migration assay, MSP-RAS cells; details: SFRP1 1 μg/ml, BMP4 0.5 μg/ml
Method: FIGS. 4A-4G. Autocrine Signaling controls tumorigenicity and metastasis of MSP-RAS cells. (FIG. 4A) Migration assay: RAS-transformed MSP (MSP-RAS) were seeded in Boyden Chamber migration assays and recombinant SFRP1 (1 μg/ml) and BMP4 protein (0.5 μg/ml) were added; *control vs. single treatment, p<1×10^−8, **single vs. double treatment with SFRP1 and BMP4 (S+B), p<1×10^−4, n=3. […] (FIG. 4E) Lung metastasis: fluorescence microscopy images of the major left lung lobe showing GFP-expressing metastatic nodules and quantification of the number of lung surface metastases; *control vs. SFRP1 treatment, p<0.05, **SFRP1 vs. BMP4 or double treatment (S+B), p<0.05, n=5 mice/group. (FIG. 4F) Liver metastasis: fluorescence microscopy images of the liver surface showing GFP-expressing micro-metastatic nodules after implantation of cells as described in (D) and quantification: 5 fields of liver surface were counted per mouse, *control vs. single treatment, p<0.05, **single vs. double treatment (S+B), p<0.05, n=5 mice/group. […]

HMLE-iEMT-a cells = test: Boyden chamber migration assay, iEMT-cells; details: SFRP1 1 μg/ml/d, BMP4 0.5 μg/ml/d; extent comparable to HTwist and MSP cells
Method: as §1, with “(FIG. 5D) Immunoblot: EMT markers and associated autocrine pathways, cells generated as described in (C). (FIG. 5E) Migration (Boyden Chamber Assay) and Mammosphere Assay: cells generated as indicated in (C), *control vs. TGF-beta treatment, p<1×10^−4, **control vs. iEMT-treatment, p<1×10^−9, n(migration)=3, n(mammospheres)/1000 cells, n=7. (FIG. 5F) Flow cytometry: CD44 and CD24 cell-surface marker expression in control, TGF-beta-a and iEMT-a cells generated as described in (C).” left out

Molecule | increase in ability to migrate vs untreated control cells (HMLE^24+ cells; after 14 day treatment) | motility of HMLE^24+ cells upon addition of protein (HMLE^24+ cells; 0.5 μg/ml in growth medium) | decrease of motility in vitro (MSP-RAS cells) | effect on migration of iEMT-cells (HMLE-iEMT-a cells)
TGF-beta 1: recombinant TGF-beta 1 protein, used at 5 ng/ml | not in motility |  |  | 
B1 |  | not further reduced | 9 fold | inhibited
B2 |  |  | 4 fold | inhibited
